{"source": "paper PMC5937170", "settings_in_all_cases": "EMSA: 15 ul, 70 C for 15 min, buffer per Ochs et al. 2012 (not given), 8% native PAGE; footprint: same binding conditions, DNase I at 37 C", "key": {"[1]": {"target": "T1, TFB-RF1 (Pyrococcus furiosus) (UniProt Q8U1W6)", "T1 sequence": "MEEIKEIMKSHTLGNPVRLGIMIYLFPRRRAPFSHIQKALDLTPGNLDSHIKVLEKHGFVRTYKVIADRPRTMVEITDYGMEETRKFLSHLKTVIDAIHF", "assay": "EMSA"}, "[2]": {"target": "T2, TFB-RF1;TBP;TFB (Pyrococcus furiosus;Pyrococcus furiosus?;Pyrococcus furiosus?) (UniProt Q8U1W6+P62000+P61998)", "T2 sequence 1": "T1 sequence", "T2 sequence 2": "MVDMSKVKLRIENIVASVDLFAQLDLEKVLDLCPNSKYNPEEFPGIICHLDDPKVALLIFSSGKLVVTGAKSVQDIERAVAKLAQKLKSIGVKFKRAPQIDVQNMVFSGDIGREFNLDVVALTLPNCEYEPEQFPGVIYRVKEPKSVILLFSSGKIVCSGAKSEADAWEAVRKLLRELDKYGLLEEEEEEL", "T2 sequence 3": "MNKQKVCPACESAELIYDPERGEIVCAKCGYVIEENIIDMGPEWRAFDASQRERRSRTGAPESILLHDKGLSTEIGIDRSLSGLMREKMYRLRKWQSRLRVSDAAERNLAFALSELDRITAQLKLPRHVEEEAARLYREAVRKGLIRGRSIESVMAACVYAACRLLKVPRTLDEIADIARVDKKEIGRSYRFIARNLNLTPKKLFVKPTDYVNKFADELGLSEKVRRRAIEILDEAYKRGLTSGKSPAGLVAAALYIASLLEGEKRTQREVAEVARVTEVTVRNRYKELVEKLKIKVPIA", "assay": "EMSA"}, "[3]": {"target": "T1, TFB-RF1 (Pyrococcus furiosus)", "assay": "DNase I footprinting"}}}
{"sequence": "ACTATTTTGGAAATTAGTTAAAGCTTCTAAAAAAGCTTGTTGTTTTTCTGGGATTCAGACGGATTATTTACAAAAAAGGAAAGGAATATTGGTAGCTATA (double strand) [pf1011/1012 promoter region (EMSA)]", "values": [{"measurement": "binding", "setting": "[1]", "result": "binds"}, {"measurement": "binding", "setting": "[2]", "result": "binds"}]}
{"sequence": "ACTATTTTGGAAATTAGTTAAAGCTTCTAAAAAAGCTTGTTGTTTTTCTGGGATTCAGACGGATTATTTACAAAAAAGGAAAGGAATATTGGTAGCTATA (double strand) [pf1011/1012 promoter region (footprint)]", "values": [{"measurement": "binding", "setting": "[3]", "result": "binds"}]}
